Measurements published in US20130236459A1 (MERRIMACK PHARMACEUTICALS, published 2013).
Numbering of substitutions follows the chain as printed. Like-named read-outs stand apart in the source and are kept apart here.

B1: ANTI-ErbB3 Ab# A (antibody, V domains shown)
VH: QVQLQQWGAGLLKPSETLSLTCAVYGGSFSGYYWSWIRQPPGKGLEWIGEINHSGSTNYNPSLKSRVTISVETSKNQFSLKLSSVTAADTAVYYCARDKWTWYFDLWGRGTLVTVSS
VL: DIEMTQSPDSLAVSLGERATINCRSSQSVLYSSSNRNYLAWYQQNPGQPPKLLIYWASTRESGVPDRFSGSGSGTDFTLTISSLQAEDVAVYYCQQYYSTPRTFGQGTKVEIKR
B2: ANTI-IGF-1R Ab# A (ganitumab) (antibody, V domains shown)
VH: QVQLQESGPGLVKPSGTLSLTCAVSGGSISSSNWWSWVRQPPGKGLEWIGEIYHSGSTNYNPSLKSRVTISVDKSKNQFSLKLSSVTAADTAVYYCARWTGRTDAFDIWGQGTMVTVSS
VL: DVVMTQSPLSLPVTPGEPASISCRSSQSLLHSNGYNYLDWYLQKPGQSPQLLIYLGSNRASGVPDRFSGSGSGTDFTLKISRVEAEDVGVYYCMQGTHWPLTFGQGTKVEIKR
B3: P4-G1-M1.3 (bispecific antibody, human IgG1, kappa)
heavy: not shown
light: DIQMTQSPSSLSASLGDRVTITCRASQGISSYLAWYQQKPGKAPKLLIYAKSTLQSGVPSRFSGSGSGTDFTLTISSLQPEDSATYYCQQYWTFPLTFGGGTKVEIKRTVAAPSVFIFPPSDEQLKSGTASVVCLLNNFYPREAKVQWKVDNALQSGNSQESVTEQDSKDSTYSLSSTLTLSKADYEKHKVYACEVTHQGLSSPVTKSFNRGEC
B4: ILE-10 (bispecific antibody, human IgG2, kappa)
heavy: EVQLLESGGGLVQPGGSLRLSCAASGFTFSVYPMHWVRQAPGKGLEWVSSISSSGGATRYADSVKGRFTISRDNSKNTLYLQMNSLRAEDTAVYYCAKDFYDILTGNAFDIWGQGTMVTVSSASTKGPSVFPLAPCSRSTSESTAALGCLVKDYFPEPVTVSWNSGALTSGVHTFPAVLQSSGLYSLSSVVTVPSSNFGTQTYTCNVDHKPSNTKVDKTVERKCCVECPPCPAPPVAGPSVFLFPPKPKDTLMISRTPEVTCVVVDVSHEDPEVQFNWYVDGVEVHNAKTKPREEQFNSTFRVVSVLTVVHQDWLNGKEYKCKVSNKGLPAPIEKTISKTKGQPREPQVYTLPPSREEMTKNQVSLTCLVKGFYPSDIAVEWESNGQPENNYKTTPPMLDSDGSFFLYSKLTVDKSRWQQGNVFSCSVMHEALHNHYTQKSLSLSPGKGGGGSGGGGSGGGGSLQEVQLLESGGGLVQPGGSLRLSCAASGFTFSAYNMRWVRQAPGKGLEWVSVIYPSGGATRYADSVKGRFTISRDNSKNTLYLQMNSLRAEDTAVYYCARGYYYYGMDVWGQGTLVTVSSASTGGGGSGGGGSGGGGSQSVLTQPPSASGTPGQRVTISCSGSDSNIGRNYIYWYQQFPGTAPKLLIYRNNQRPSGVPDRISGSKSGTSASLAISGLRSEDEAEYHCGTWDDSLSGPVFGGGTKLTVLS
light: B3 light with L11F, L15T, K51A, W92F
notes: anti-IGF-1R/anti-ErbB3 IgG2-(scFv)2: anti-IGF-1R IgG2 (module 5-7), anti-ErbB3 scFv (module 2-3); also called 14F; 14f
B5: M7-G1-M78 (bispecific antibody, human IgG1, lambda)
heavy: not shown
light: SSELTQDPAVSVALGQTVRITCQGDSLRSYYASWYQQKPGQAPVLVIYGKNNRPSGIPDRFSGSSSGNTASLTITGAQAEDEADYYCNSRDTPGNKWVFGGGTKVTVIGQPKAAPSVTLFPPSSEELQANKATLVCLVSDFYPGAVTVAWKADGSPVKVGVETTKPSKQSNNKYAASSYLSLTPEQWKSHRSYSCRVTHEGSTVEKTVAPAECS
notes: IgG1-(scFv)2: anti-ErbB3 Fab, anti-IGF-1R scFv; also called M7-M78; M7-78
B6: Anti-IGF-1R Ab# B (cixutumumab) (antibody, V domains shown)
VH: EVQLVQSGAEVKKPGSSVKVSCKASGGTFSSYAISWVRQAPGQGLEWMGGIIPIFGTANYAQKFQGRVTITADKSTSTAYMELSSLRSEDTAVYYCARAPLRFLEWSTQDHYYYYYMDVWGKGTTVTVSS
VL: SSELTQDPAVSVALGQTVRITCQGDSLRSYYATWYQQKPGQAPILVIYGENKRPSGIPDRFSGSSSGNTASLTITGAQAEDEADYYCKSRDGSGQHLVFGGGTKLTVLG

Legend:
[1] = molecular target: T1, ErbB3 (HER3), endogenous on human tumor cell lines (human, UniProt P21860 20-1342); test: cell-based or functional assay
T1 sequence (P21860 20-1342 limits assumed): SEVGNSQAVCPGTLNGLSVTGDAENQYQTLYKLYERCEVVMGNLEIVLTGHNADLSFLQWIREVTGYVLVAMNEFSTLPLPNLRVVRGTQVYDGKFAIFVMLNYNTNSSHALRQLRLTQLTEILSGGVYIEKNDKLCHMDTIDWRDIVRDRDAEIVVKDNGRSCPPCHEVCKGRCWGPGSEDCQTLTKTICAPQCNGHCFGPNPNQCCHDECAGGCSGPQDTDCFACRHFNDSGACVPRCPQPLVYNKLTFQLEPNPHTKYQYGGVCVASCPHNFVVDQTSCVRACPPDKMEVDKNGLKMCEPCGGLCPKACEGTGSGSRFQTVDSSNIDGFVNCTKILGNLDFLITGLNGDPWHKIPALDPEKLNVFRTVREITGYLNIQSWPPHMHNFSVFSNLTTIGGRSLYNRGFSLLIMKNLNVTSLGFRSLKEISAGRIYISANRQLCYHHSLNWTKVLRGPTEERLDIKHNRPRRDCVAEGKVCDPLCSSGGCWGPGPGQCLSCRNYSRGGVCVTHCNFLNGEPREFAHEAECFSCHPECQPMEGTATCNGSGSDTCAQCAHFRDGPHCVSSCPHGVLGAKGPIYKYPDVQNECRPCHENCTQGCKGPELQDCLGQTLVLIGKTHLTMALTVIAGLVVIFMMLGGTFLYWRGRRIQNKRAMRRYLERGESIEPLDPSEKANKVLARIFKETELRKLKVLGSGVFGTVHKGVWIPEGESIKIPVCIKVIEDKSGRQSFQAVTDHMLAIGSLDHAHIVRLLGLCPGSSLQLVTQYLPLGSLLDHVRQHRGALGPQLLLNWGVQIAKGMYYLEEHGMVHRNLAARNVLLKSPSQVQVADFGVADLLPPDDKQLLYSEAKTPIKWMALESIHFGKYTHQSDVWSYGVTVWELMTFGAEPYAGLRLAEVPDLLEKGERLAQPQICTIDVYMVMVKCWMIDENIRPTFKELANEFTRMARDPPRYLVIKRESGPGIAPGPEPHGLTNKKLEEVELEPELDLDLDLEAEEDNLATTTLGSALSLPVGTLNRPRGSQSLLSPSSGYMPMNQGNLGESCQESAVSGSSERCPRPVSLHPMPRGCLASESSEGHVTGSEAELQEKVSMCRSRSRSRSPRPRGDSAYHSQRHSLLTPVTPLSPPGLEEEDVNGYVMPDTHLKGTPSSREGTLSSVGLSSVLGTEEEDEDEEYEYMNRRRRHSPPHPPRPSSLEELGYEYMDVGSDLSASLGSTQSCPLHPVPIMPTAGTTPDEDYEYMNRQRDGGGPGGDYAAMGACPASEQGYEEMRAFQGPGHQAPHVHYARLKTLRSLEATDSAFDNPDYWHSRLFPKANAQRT

[2] = molecular target: T1, ErbB3 (HER3), endogenous on human tumor …; test: cell-based or functional assay; remark: listed apart in the source
[3] = molecular target: T1, ErbB3 (HER3), endogenous on human tumor …; test: cell-based or functional assay; remark: listed apart in the source
[4] = molecular target: T1, ErbB3 (HER3), endogenous on human tumor …; test: cell-based or functional assay; remark: listed apart in the source
[5] = molecular target: T1, ErbB3 (HER3), endogenous on human tumor …; test: cell-based or functional assay; remark: listed apart in the source
[6] = molecular target: T2, IGF-1R (receptor for insulin-like growth factor 1), endogenous on human tumor cell lines (human, UniProt P08069 31-1367); test: cell-based or functional assay
T2 sequence (P08069 31-1367): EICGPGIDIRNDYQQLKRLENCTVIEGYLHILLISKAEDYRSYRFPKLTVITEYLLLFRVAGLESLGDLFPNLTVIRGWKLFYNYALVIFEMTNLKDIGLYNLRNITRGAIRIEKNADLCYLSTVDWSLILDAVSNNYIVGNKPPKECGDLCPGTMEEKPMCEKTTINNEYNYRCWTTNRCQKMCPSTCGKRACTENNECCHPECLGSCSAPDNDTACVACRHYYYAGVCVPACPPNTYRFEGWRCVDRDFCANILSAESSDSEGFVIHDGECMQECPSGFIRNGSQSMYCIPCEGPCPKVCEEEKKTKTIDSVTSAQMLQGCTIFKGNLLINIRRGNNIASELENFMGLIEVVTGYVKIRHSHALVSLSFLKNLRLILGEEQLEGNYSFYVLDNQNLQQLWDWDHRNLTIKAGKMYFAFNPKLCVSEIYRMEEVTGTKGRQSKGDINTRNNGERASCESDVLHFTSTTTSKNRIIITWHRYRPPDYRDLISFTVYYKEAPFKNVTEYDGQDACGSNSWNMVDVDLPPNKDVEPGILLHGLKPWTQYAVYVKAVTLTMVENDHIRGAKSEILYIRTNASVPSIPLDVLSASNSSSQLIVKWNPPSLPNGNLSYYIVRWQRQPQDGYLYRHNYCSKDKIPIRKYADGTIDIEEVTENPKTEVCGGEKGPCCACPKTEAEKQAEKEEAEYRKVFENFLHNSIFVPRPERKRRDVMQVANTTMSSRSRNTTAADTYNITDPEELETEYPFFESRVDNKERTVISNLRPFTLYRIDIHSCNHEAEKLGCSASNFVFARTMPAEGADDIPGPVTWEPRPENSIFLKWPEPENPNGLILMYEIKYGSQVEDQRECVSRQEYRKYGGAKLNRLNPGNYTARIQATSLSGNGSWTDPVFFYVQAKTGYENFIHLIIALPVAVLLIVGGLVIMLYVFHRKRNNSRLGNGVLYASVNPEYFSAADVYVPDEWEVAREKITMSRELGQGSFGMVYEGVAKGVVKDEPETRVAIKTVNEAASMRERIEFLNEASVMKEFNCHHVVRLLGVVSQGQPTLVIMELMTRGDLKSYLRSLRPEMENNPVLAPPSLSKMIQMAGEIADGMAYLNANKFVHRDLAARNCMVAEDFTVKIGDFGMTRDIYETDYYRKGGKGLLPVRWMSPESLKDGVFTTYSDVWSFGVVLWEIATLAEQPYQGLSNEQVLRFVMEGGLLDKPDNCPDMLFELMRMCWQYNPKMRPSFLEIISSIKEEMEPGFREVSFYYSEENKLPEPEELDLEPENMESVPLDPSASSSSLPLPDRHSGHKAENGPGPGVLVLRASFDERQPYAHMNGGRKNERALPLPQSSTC

[7] = molecular target: T2, IGF-1R (receptor for insulin-like …); test: cell-based or functional assay; remark: listed apart in the source
[8] = molecular target: T2, IGF-1R (receptor for insulin-like …); test: cell-based or functional assay; remark: listed apart in the source
[9] = molecular target: T2, IGF-1R (receptor for insulin-like …); test: cell-based or functional assay; remark: listed apart in the source
[10] = molecular target: T2, IGF-1R (receptor for insulin-like …); test: cell-based or functional assay; remark: listed apart in the source
[11] = molecular target: T2, IGF-1R (receptor for insulin-like …); test: cell-based or functional assay; remark: listed apart in the source
[12] = molecular target: T1, ErbB3 (HER3), endogenous on human tumor …; test: cell-based or functional assay; remark: listed apart in the source
[13] = molecular target: T2, IGF-1R (receptor for insulin-like …); test: summary sentence of Example 3 (FACS on cells)
Description: (§1) 1×10⁵ MCF7 cells or 1×10⁵ ADRr cells are incubated at room temperature for 2 hours with each of ELI-7, ILE-10 and ILE-12, two anti-ErB3 antibodies and one anti-IGF-1R antibody at 2 uM, followed by 12 subsequent 3-fold dilutions. Then using goat anti-HSA-Alexa647 conjugated antibody as the detection antibody, cells are incubated on ice for 40 minutes. Cell binding dissociation constants (measures of binding affinities) of the antibodies on MCF7 and ADRr cells are assessed by FACS and apparent dissociation constants are determined for each protein. The following results were obtained (see also FIGS. 14A and 14B): […]

[14] = molecular target: T1, ErbB3 (HER3), endogenous on human tumor …; test: summary sentence of Example 3 (FACS on cells)
Description: as §1

mouse ErbB3-His = molecular target: T3, mouse ErbB3-His (mouse, UniProt Q61526 20-641, limits assumed); test: ELISA, species specific ErbB3-His coated plate
T3 construct: not shown: His tag, not further described for this species form
T3 sequence (Q61526 20-641 limits assumed): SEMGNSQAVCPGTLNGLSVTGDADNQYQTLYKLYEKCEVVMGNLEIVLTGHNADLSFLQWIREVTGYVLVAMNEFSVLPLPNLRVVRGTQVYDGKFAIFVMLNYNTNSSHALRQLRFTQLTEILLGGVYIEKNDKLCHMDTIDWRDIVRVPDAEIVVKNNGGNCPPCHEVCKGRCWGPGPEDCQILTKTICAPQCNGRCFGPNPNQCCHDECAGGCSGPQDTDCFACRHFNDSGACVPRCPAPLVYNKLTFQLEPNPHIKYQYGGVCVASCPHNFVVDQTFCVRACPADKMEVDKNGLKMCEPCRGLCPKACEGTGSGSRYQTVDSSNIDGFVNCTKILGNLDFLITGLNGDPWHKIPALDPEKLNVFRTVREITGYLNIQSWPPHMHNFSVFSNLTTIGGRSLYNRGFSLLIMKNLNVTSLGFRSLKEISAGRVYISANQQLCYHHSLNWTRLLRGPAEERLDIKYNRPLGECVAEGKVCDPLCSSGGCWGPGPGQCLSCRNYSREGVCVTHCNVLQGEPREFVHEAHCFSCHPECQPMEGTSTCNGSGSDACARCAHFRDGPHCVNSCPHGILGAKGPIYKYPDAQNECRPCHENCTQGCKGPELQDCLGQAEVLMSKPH
Description: (§2) 96-well Reacti-bind® plates (Pierce, Fisher cat. No. PI-I5041) are coated with 50 ul of species specific ErbB3-His or IGF-1R-His (R&D Systems, cat. No. 348-RB and 305-GR, respectively) at 2 ug/ml in PBS and incubated overnight at 4° C. The next day plates are washed with PBS+0.05% Tween-20 (PBS-T) and blocked for 1 hr. at room temperature with 100 ul of Protein-Free Blocking Buffer (Pierce). Plates are washed with PBS-T and 50 ul of each PBA is added in duplicate. Concentrations start at 500 nM (in PBS-T) and included ten additional two-fold dilutions and one blank (PBS-T only). Plates are incubated at room temperature for two hours and then washed with PBS-T. 50 ul of anti-Fc-HRP (Jackson Labs) is added at 1:40,000 in PBS-T, and plates are incubated in the dark for 1 hr. at room temperature. Plates are again washed with PBS-T and 100 ul of TMB substrate (Thermo Scientific, TMB and peroxide solution mixed 1:1) is added. The plates are incubated for 5-15 minutes at room temperature until a blue color develops, and the reaction is stopped with 100 ul of STOP solution (Cell Signaling Technology). The absorbance is read at 450 nm on a PerkinElmer Envision plate reader, and binding curves are generated using GraphPad Prism.

rat ErbB3-His = molecular target: T4, rat ErbB3-His (rat, UniProt Q62799 20-641, limits assumed); test: ELISA, species specific ErbB3-His coated plate
T4 construct: not shown: His tag, not further described for this species form
T4 sequence (Q62799 20-641 limits assumed): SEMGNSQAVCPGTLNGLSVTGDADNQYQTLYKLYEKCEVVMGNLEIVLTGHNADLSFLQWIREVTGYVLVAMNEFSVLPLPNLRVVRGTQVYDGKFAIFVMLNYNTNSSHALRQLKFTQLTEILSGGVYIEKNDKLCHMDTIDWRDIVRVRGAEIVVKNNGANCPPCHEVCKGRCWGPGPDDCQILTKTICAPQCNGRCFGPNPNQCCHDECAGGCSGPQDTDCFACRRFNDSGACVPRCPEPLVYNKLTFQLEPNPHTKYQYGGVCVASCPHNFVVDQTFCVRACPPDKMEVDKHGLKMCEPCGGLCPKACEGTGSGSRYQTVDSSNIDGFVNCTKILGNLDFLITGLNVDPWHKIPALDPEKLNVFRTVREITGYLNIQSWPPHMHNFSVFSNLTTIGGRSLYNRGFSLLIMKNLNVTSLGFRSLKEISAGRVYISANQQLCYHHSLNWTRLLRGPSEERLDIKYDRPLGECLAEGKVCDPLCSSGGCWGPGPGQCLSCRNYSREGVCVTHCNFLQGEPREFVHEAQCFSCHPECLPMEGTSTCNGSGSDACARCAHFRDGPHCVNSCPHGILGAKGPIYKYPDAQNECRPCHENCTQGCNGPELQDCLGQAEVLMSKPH
Description: as §2

mouse IGF-1R-His = molecular target: T5, mouse IGF-1R-His (mouse, UniProt Q60751 31-936, limits assumed); test: ELISA, species specific IGF-1R-His coated plate
T5 construct: not shown: His tag, not further described
T5 sequence (Q60751 31-936 limits assumed): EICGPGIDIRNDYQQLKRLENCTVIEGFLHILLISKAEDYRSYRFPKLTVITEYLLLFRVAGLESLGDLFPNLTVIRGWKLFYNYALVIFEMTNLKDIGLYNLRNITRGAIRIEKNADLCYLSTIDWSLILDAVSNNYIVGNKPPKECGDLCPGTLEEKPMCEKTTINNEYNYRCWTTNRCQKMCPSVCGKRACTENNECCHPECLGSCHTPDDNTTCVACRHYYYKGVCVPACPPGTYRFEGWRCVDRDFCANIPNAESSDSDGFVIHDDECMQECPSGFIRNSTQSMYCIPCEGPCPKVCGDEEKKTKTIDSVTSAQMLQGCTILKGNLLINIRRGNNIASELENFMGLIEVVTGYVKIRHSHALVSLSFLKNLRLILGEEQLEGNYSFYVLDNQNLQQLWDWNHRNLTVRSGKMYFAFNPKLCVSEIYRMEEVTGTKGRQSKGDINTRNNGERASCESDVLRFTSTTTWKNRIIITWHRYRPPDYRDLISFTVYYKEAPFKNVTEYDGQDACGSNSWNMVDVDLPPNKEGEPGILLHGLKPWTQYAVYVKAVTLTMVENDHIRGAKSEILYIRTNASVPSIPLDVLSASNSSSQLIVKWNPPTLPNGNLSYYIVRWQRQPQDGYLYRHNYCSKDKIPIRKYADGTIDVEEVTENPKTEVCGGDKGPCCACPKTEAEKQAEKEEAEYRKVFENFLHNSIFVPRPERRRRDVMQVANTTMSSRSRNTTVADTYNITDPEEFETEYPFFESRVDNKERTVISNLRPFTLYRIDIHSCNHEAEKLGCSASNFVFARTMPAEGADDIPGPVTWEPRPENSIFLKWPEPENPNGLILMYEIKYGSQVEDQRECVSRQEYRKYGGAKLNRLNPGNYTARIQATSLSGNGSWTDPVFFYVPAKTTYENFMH
Description: as §2

[15] = molecular target: T2, IGF-1R (receptor for insulin-like …); test: cell-based or functional assay; remark: listed apart in the source

Binder	pAKT IC50 (BxPC-3, HRG 20 ng/ml) [4] [M]	pAKT IC50 (BxPC-3, HRG 200 ng/ml) [4] [M]	pErbB3 IC50 (BxPC-3, HRG 20 ng/ml) [4] [M]	pErbB3 IC50 (BxPC-3, HRG 200 ng/ml) [4] [M]	pErbB3 IC50 (BxPC-3) [5]	pAKT IC50 (BxPC-3, IGF1 40 ng/ml) [8] [M]	pAKT IC50 (BxPC-3, IGF1 400 ng/ml) [8] [M]	pIGF1R IC50 (BxPC-3, IGF1 40 ng/ml) [8] [M]	pIGF1R IC50 (BxPC-3, IGF1 400 ng/ml) [8] [M]	pIGF1R IC50 (BxPC-3) [9]	% IGF1R Downregulation (A549, 24 h) [10] [%]	% IGF1R Downregulation (BxPC-3, 24 h) [10] [%]	pIGF1R % Inhibition (BxPC-3) [11] [%]	pIGF1R IC50 (BxPC-3) [11]	pErbB3 % Inhibition (BxPC-3) [12] [%]	pErbB3 IC50 (BxPC-3) [12]	also measured
B1	3.06e-10	3.26e-10	2.41e-10	1.98e-10	9.2e-11 M (inferred)												pAKT IC50 (BxPC-3 50% ErbB3 KD) [1]: 2.8e-10 M; pAKT IC50 (BxPC-3 50% IGF1R KD) [1]: 1.6e-09 M; pAKT IC50 (BxPC-3 Vector Control) [1]: 2.5e-09 M; pAKT IC50 (BxPC-3) [2]: 5.7e-09 M (inferred); pErbB3 IC50 (BxPC-3) [2]: 4.3e-10 M (inferred); pAKT IC50 (BxPC-3) [3]: 3.9e-10 M (inferred); pAKT IC50 (DU145) [3]: 2.8e-10 M (inferred); pErbB3 IC50 (BxPC-3) [3]: 5.1e-11 M (inferred); pErbB3 IC50 (DU145) [3]: 8.2e-11 M (inferred); pAKT IC50 (BxPC-3) [5]: 3.5e-10 M (inferred)
B2						7.4e-09	9.1e-09	7.8e-10	2.5e-10	1.6e-09 M (inferred)	57	51					pAKT IC50 (BxPC-3 50% ErbB3 KD) [6]: 1.3e-07 M; pAKT IC50 (BxPC-3 50% IGF1R KD) [6]: 4e-08 M; pAKT IC50 (BxPC-3 Vector Control) [6]: 2.1e-08 M; pAKT IC50 (BxPC-3) [7]: 2.6e-10 M (inferred); pIGF-1R IC50 (BxPC-3) [7]: 1.5e-10 M (inferred); pAKT IC50 (BxPC-3) [9]: 8e-11 M (inferred)
B3	3.97e-11	4.09e-11	3.12e-11	2.72e-11	5.3e-11 M (inferred)	1.4e-10	2.1e-10	1.2e-10	9.9e-11	1.1e-09 M (inferred)	72	71	92	1.8e-10 M (inferred)	94	5.5e-11 M (inferred)	
B4																	binding result [13]: binds; binding result [14]: binds
B5	7.12e-11	6.46e-11	6.16e-11	6.53e-11	2.6e-11 M (inferred)	3.8e-10	6.4e-10	1e-09	2.4e-09	1.3e-09 M (inferred)	48	53	88	1.3e-09 M (inferred)	111	2.6e-11 M (inferred)	binding result (mouse ErbB3-His): binds; binding result (rat ErbB3-His): binds; binding result (mouse IGF-1R-His): binds
B6																	pAKT IC50 (BxPC-3) [15]: 1.4e-08 M (inferred); pAKT IC50 (DU145) [15]: 9.8e-09 M (inferred); pIGF-1R IC50 (BxPC-3) [15]: 2.4e-09 M (inferred); pIGF-1R IC50 (DU145) [15]: 9.1e-10 M (inferred)
